Target: T1, 肉毒毒素AHC片段 (UniProt P0DPI1 873-1296)
T1 construct: domain: AHC片段
Assay: ELISA, coated antigen, anti-human IgG-HRP

T1 sequence (P0DPI1 873-1296 limits assumed): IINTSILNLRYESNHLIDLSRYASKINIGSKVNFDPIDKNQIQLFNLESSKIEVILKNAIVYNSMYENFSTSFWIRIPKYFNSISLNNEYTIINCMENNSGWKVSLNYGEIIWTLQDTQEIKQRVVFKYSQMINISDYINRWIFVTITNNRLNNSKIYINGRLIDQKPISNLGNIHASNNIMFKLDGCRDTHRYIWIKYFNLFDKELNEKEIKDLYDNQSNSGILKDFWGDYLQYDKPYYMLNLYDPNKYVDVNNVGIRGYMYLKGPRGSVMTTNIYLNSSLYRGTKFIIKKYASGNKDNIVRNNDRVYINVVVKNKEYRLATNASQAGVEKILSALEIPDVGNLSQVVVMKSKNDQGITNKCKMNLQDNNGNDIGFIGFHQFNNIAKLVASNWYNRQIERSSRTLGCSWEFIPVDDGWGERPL

B1: 人鼠嵌合全抗体mhC3 (antibody, V domains shown)
VH: EVQLVESGGDLVKPGGSLKLSCAASGFTFNTYAMNWVRQTPGKGLEWVARIRSKSNNYATYYADSVKDRFTISRDDSQSMLYLQMNNLKTEDTAMYYCVTPYYGNYADWFTYWGQGTSVTVSS
VL: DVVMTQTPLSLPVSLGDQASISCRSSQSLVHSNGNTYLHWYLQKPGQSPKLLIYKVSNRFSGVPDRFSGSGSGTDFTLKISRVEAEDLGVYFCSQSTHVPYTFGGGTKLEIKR
notes: also called mhC3抗体; C3 (图5、图6)
  binding result: no binding (tested: 300μg/mL)

— patent CN111995674A (INST MILITARY MEDICINE ACADEMY MILITARY SCIENCES PLA, dated 2020)
